Results published in paper PMC3660575, “The Intracellular Domain of Sortilin Interacts with Amyloid Precursor Protein and Regulates Its Lysosomal and Lipid Raft Trafficking” (PLoS ONE, 2013).

Biological target: T1, APP770-YFP (human, UniProt P05067-1 18-770)
T1 construct: human amyloid precursor protein, the isoform named APP770; Plasmid was a gift (Prof. Goldstein, UCSD); the construct is not described further; also called APP-YFP; source: HEK293, transfected (APP770-YFP pcDNA3.1), in lysate or in living cells
Experiment: FRET or BRET; FRET acceptor bleaching in co-transfected HEK293 cells (YFP and CFP fusions); FRET efficiency from photobleached regions of interest; the negative control's value used as cut-off
Conditions: partners not purified

T1 sequence (P05067 18-770): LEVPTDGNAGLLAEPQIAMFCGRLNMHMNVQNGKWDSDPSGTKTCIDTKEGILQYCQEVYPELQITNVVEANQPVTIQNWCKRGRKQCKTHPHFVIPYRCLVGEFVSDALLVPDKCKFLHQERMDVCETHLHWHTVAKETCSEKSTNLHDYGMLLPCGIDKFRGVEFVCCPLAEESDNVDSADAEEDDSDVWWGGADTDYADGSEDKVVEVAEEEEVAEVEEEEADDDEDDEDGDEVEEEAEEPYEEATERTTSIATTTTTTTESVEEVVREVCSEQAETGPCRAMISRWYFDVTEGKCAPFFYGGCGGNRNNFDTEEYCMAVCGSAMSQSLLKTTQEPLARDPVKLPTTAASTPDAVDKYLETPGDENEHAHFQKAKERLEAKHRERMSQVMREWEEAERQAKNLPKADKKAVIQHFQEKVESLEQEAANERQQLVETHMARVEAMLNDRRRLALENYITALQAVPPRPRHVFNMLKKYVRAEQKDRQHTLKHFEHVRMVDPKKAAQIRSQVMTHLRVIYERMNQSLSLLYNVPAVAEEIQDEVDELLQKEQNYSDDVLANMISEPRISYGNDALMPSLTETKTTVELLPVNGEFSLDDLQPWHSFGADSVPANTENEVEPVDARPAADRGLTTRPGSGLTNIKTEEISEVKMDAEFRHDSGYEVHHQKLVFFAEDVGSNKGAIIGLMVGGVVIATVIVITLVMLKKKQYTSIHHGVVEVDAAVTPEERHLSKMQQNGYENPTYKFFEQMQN

- FRET efficiency: 40%
B1: Sort 756-831-CFP (domain or fragment, human, UniProt Q99523-1 756-831, looked up)
chain: SVPIILAIVGLMLVTVVAGVLIVKKYVCGGRFLVHRYSVLQQHAEANGVDGVDALDTASHTNKSGYHDDSDEDLLE
notes: The forward primer adds a start ATG before the stretch; source: HEK293, transfected, in lysate or in living cells; not shown: CFP (vector pECFP-N1), C-terminal, kept
